Data taken from US20250206828A1, “ANTI-ADENOSINE RECEPTOR (A2aR) ANTIBODIES AND THE USE THEREOF” (Adept Therapeutics Inc., priority 2022, published 2025).
Numbering of substitutions follows the chain as printed. Names and notes keep the numbering of the source.

B1: Hu3F8-H3/Hu3F8-L5 (antibody, human IgG1, V domains shown)
VH: EVQLVQSGAEVKKPGASVKVSCKASGFTFTRYWMNWVRQAPGQGLEWIGRIDPSDSETHYNHKFWGRATLTVDTSTSTVYMELSSLRSEDTAVYYCLRSLYGKGDYWGQGTTVTVSS
VL: DVVMTQSPLSLPVTPGEPASISCRSSQSIVHSNGNTYLEWYLQKPGQSPQLLIYKVSNRFSGVPDRFSGSGSGTDFTLKISRVEAEDVGVYYCYQGSHVPLTFGGGTKVEIK
notes: Human IgG1 FES (L234F, L235E, P331S) and human Ig kappa constant domains; also called Hu3F8 VH3/VL5
B2: Hu3F6-H3/Hu3F6-L4 (antibody, human IgG1, V domains shown)
VH: B1 VH with A24T, T28A, R31S, T58A, N61H, T76S, Q109H
VL: B1 VL with V2I, S7T, P12S, E17Q, I29L, S32R
notes: Human IgG1 FES (L234F, L235E, P331S) and human Ig kappa constant domains; also called Hu3F6 VH3/VL4
B3: Hu3F6-H3/Hu3F6-L3 (antibody, human IgG1, V domains shown)
VH: B1 VH with A24T, T28A, R31S, T58A, N61H, T76S, Q109H
VL: B1 VL with P15L, E17Q, I29L, S32R, L42Q, K44R, Q50R
notes: Human IgG1 FES (L234F, L235E, P331S) and human Ig kappa constant domains; also called Hu3F6 VH3/VL3
B4: Hu3F6-H5/Hu3F6-L4 (antibody, human IgG1, V domains shown)
VH: B1 VH with A24T, T28A, R31S, T58A, N61A, T74K, T76S, Q109H
VL: B1 VL with V2I, S7T, P12S, E17Q, I29L, S32R
notes: Human IgG1 FES (L234F, L235E, P331S) and human Ig kappa constant domains; also called Hu3F6 VH5/VL4
B5: Hu3F6-H5/Hu3F6-L3 (antibody, human IgG1, V domains shown)
VH: B1 VH with A24T, T28A, R31S, T58A, N61A, T74K, T76S, Q109H
VL: B1 VL with P15L, E17Q, I29L, S32R, L42Q, K44R, Q50R
notes: Human IgG1 FES (L234F, L235E, P331S) and human Ig kappa constant domains; also called Hu3F6 VH5/VL3
B6: Hu3F8-H6/Hu3F8-L3 (antibody, human IgG1, V domains shown)
VH: EVQLVQSGAEVKKPGESLRISCKASGFTFTRYWMNWVRQMPGKGLEWIGRIDPSDSETHYNHKFWGHATLSVDKSSSTVYLQWSSLKASDTAMYYCLRSLYGKGDYWGQGTTVTVSS
VL: B1 VL with P15L, E17Q, L42Q, K44R, Q50R
notes: Human IgG1 FES (L234F, L235E, P331S) and human Ig kappa constant domains; also called Hu3F8 VH6/VL3
B7: Hu3F8-H1/Hu3F8-L5 (antibody, human IgG1, V domains shown)
VH: B1 VH with E1Q, I48M, A68V, L70M, V72R
VL: B1 VL
notes: Human IgG1 FES (L234F, L235E, P331S) and human Ig kappa constant domains; also called Hu3F8 VH1/VL5
B8: Hu3F8-H2/Hu3F8-L3 (antibody, human IgG1, V domains shown)
VH: B1 VH with I48M, A68V, L70M
VL: B1 VL with P15L, E17Q, L42Q, K44R, Q50R
notes: Human IgG1 FES (L234F, L235E, P331S) and human Ig kappa constant domains; also called Hu3F8 VH2/VL3
B9: Hu3F6-H5/Hu3F6-L8 (antibody, human IgG1, V domains shown)
VH: B1 VH with A24T, T28A, R31S, T58A, N61A, T74K, T76S, Q109H
VL: B1 VL with I29L, S32R
notes: Human IgG1 FES (L234F, L235E, P331S) and human Ig kappa constant domains; also called Hu3F6 VH5/VL8
B10: Hu3F8-H4/Hu3F8-L5 (antibody, human IgG1, V domains shown)
VH: B1 VH with T74K
VL: B1 VL
notes: Human IgG1 FES (L234F, L235E, P331S) and human Ig kappa constant domains; also called Hu3F8 VH4/VL5
B11: Hu3F8-H2/Hu3F8-L5 (antibody, human IgG1, V domains shown)
VH: B1 VH with I48M, A68V, L70M
VL: B1 VL
notes: Human IgG1 FES (L234F, L235E, P331S) and human Ig kappa constant domains; also called Hu3F8 VH2/VL5
B12: Hu3F8-H4/Hu3F8-L3 (antibody, human IgG1, V domains shown)
VH: B1 VH with T74K
VL: B1 VL with P15L, E17Q, L42Q, K44R, Q50R
notes: Human IgG1 FES (L234F, L235E, P331S) and human Ig kappa constant domains; also called Hu3F8 VH4/VL3
B13: Hu3F8-H3/Hu3F8-L3 (antibody, human IgG1, V domains shown)
VH: B1 VH
VL: B1 VL with P15L, E17Q, L42Q, K44R, Q50R
notes: Human IgG1 FES (L234F, L235E, P331S) and human Ig kappa constant domains; also called Hu3F8 VH3/VL3
B14: Hu3F8-H4/Hu3F8-L4 (antibody, human IgG1, V domains shown)
VH: B1 VH with T74K
VL: B1 VL with V2I
notes: Human IgG1 FES (L234F, L235E, P331S) and human Ig kappa constant domains; also called Hu3F8 VH4/VL4
B15: Hu3F8-H6/Hu3F8-L5 (antibody, human IgG1, V domains shown)
VH: B6 VH
VL: B1 VL
notes: Human IgG1 FES (L234F, L235E, P331S) and human Ig kappa constant domains; also called Hu3F8 VH6/VL5
B16: Hu3F6-H2/Hu3F6-L2 (antibody, human IgG1, V domains shown)
VH: B1 VH with A24T, T28A, R31S, I48M, T58A, N61H, A68V, L70M, Q109H
VL: B1 VL with P15L, E17Q, I29L, S32R, L42Q, K44R, Q50R, L51R
B17: Hu3F6-H5/Hu3F6-L2 (antibody, human IgG1, V domains shown)
VH: B1 VH with A24T, T28A, R31S, T58A, N61A, T74K, T76S, Q109H
VL: B1 VL with P15L, E17Q, I29L, S32R, L42Q, K44R, Q50R, L51R
B18: Hu1B5-H4/Hu1B5-L1 (antibody, human IgG1, V domains shown)
VH: B1 VH with A24T, Y32F, S54Y, H59Q, G66D, T74K, T76S, L97G
VL: B1 VL with P15L, E17Q, Y41F, L42Q, K44R, Q50R, L51R, Y94F
B19: Hu3F8-H3/Hu3F8-L1 (antibody, human IgG1, V domains shown)
VH: B1 VH
VL: B1 VL with P15L, E17Q, Y41F, L42Q, K44R, Q50R, L51R
B20: Hu3F6-H3/Hu3F6-L2 (antibody, human IgG1, V domains shown)
VH: B1 VH with A24T, T28A, R31S, T58A, N61H, T76S, Q109H
VL: B1 VL with P15L, E17Q, I29L, S32R, L42Q, K44R, Q50R, L51R
B21: Hu1B5-H2/Hu1B5-L1 (antibody, human IgG1, V domains shown)
VH: B1 VH with A24T, Y32F, I48M, S54Y, H59Q, G66D, A68V, L70M, L97G
VL: B1 VL with P15L, E17Q, Y41F, L42Q, K44R, Q50R, L51R, Y94F
B22: Hu1B5-H6/Hu1B5-L1 (antibody, human IgG1, V domains shown)
VH: B6 VH with A24T, Y32F, S54Y, H59Q, G66D, L97G
VL: B1 VL with P15L, E17Q, Y41F, L42Q, K44R, Q50R, L51R, Y94F
B23: Hu1B5-H5/Hu1B5-L1 (antibody, human IgG1, V domains shown)
VH: B1 VH with A24T, Y32F, S54Y, H59Q, N61A, G66D, T74K, T76S, L97G
VL: B1 VL with P15L, E17Q, Y41F, L42Q, K44R, Q50R, L51R, Y94F
B24: Hu3F8-H3/Hu3F8-L2 (antibody, human IgG1, V domains shown)
VH: B1 VH
VL: B1 VL with P15L, E17Q, L42Q, K44R, Q50R, L51R
B25: Hu3F8-H5/Hu3F8-L3 (antibody, human IgG1, V domains shown)
VH: B1 VH with H62A, T74K
VL: B1 VL with P15L, E17Q, L42Q, K44R, Q50R
notes: Human IgG1 FES (L234F, L235E, P331S) and human Ig kappa constant domains
B26: Hu3F8-H5/Hu3F8-L5 (antibody, human IgG1, V domains shown)
VH: B1 VH with H62A, T74K
VL: B1 VL
notes: as for B25
B27: Hu3F8-H5/Hu3F8-L4 (antibody, human IgG1, V domains shown)
VH: B1 VH with H62A, T74K
VL: B1 VL with V2I
notes: as for B25
B28: Hu3F8-H6/Hu3F8-L4 (antibody, human IgG1, V domains shown)
VH: B6 VH
VL: B1 VL with V2I
notes: as for B25
B29: Hu3F8-H3/Hu3F8-L4 (antibody, human IgG1, V domains shown)
VH: B1 VH
VL: B1 VL with V2I
notes: as for B25
B30: Hu3F8-H1/Hu3F8-L3 (antibody, human IgG1, V domains shown)
VH: B1 VH with E1Q, I48M, A68V, L70M, V72R
VL: B1 VL with P15L, E17Q, L42Q, K44R, Q50R
notes: as for B25

Target: T1, human adenosine A2A receptor (A2aR) (human, UniProt P29274 1-412)
T1 construct: Assays used HEK293 cells stably overexpressing human A2aR (BPS Bioscience 79381), human A2aR-expressing CHO cells, or endogenous A2aR on human PBMC; also called human A2aR; hA2aR
Experiment: flow cytometry titration, HEK293-hA2aR cells, purified antibody

T1 sequence (P29274 whole entry): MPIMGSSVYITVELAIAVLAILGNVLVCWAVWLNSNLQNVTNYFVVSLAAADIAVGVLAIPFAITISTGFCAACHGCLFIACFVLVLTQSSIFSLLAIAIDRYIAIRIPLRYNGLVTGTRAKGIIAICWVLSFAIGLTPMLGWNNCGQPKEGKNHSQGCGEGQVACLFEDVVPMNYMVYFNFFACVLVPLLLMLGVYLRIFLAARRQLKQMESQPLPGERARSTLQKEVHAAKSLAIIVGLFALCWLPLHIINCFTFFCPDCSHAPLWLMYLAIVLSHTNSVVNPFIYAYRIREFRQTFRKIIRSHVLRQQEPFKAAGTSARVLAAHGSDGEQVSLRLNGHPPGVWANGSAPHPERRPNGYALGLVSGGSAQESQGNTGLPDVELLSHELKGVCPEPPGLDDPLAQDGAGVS

EC50 [nM]	Binder
0.83	B1
0.68	B2
0.64	B3
0.52	B4
0.5	B5
0.59	B6
0.85	B7
0.66	B8
0.59	B9
0.75	B10
0.9	B11
0.6	B12
0.69	B13
0.79	B14
0.65	B15

Target: T1, human adenosine A2A receptor (A2aR)
Experiment: flow cytometry, HEK293-hA2aR cells, supernatant 1 ug/ml

MFI [MFI]	Binder
1840	B2
1930	B3
1920	B4
2090	B5
1890	B9

Target: T1, human adenosine A2A receptor (A2aR)
Experiment: as above
Remark: another data set of the same source

MFI [MFI]	Binder
146	B16
191	B17
182	B18
64	B19
200	B20
165	B21
178	B22
82	B23
93	B24

Target: T1, human adenosine A2A receptor (A2aR)
Experiment: cell-based or functional assay

IC50 of blocking activity, cAMP-Glo, 300 nM NECA, HEK293-hA2aR cells, supernatant [nM]	Binder
19.5	B2
2	B3
7.8	B4
1.3	B5
1.1	B9

Target: T1, human adenosine A2A receptor (A2aR)
Experiment: flow cytometry, HEK293-hA2aR cells, supernatant 1 ug/ml
Remark: another data set of the same source

MFI [MFI]	Binder
1850	B1
1840	B25
1880	B6
1790	B7
1900	B26
1800	B8
1840	B27
1880	B28
1890	B10
1840	B29
1770	B11
1910	B12
1860	B13
1810	B30
1880	B14
1900	B15

Target: T1, human adenosine A2A receptor (A2aR)
Experiment: cell-based or functional assay
Remark: another data set of the same source

IC50 of blocking activity, cAMP-Glo, 300 nM NECA, HEK293-hA2aR cells, supernatant [nM]	Binder
1.5	B1
1.5	B25
1.2	B6
1.4	B7
1.6	B26
1.1	B8
2.2	B27
2.3	B28
1.5	B10
1.7	B29
1.8	B11
0.7	B12
1.1	B13
1.5	B30
1	B14
1.5	B15
